The values below come from article PMC6212785, “RGG-box in hnRNPA1 specifically recognizes the telomere G-quadruplex DNA and enhances the G-quadruplex unfolding ability of UP1 domain”.

Data set [1] deals with T1, UP1 (UniProt P09651-2 1-196). The experiment in a line: ITC; 100 mM KCl; ITC/CD: 20 mM Tris-Cl pH 8, 100 mM NaCl or KCl, 25 C; NMR: 10 mM sodium or potassium phosphate pH 6.5, 100 mM NaCl or KCl, 298 K. As to conditions: protein: recombinant, tags: C-terminal 6xHis (pET28a), chain copies: 2.
T1 sequence (P09651 1-196): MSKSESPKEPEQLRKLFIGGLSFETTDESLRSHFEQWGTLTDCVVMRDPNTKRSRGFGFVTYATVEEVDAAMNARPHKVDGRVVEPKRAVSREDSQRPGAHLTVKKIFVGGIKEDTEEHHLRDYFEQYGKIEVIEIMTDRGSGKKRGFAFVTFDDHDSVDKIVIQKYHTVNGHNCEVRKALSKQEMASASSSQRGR
The target in data set [2] is T2, UP1+RGG (UniProt P09651-2 1-249). Described as above. The settings on record: protein: recombinant, tags: C-terminal 6xHis (pET28a), chain copies: 2.
T2 sequence (P09651 1-249): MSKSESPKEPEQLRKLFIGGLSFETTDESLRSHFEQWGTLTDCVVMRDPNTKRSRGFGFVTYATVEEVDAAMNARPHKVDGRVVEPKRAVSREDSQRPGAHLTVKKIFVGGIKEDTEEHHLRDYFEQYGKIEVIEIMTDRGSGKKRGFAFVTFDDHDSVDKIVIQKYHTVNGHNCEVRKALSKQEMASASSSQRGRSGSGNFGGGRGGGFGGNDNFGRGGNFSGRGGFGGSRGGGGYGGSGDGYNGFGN
Data set [3] has as its target T1, UP1. The experiment in a line: ITC; 100 mM NaCl; ITC/CD: 20 mM Tris-Cl pH 8, 100 mM NaCl or KCl, 25 C; NMR: 10 mM sodium or potassium phosphate pH 6.5, 100 mM NaCl or KCl, 298 K. As to conditions: protein: recombinant, tags: C-terminal 6xHis (pET28a), chain copies: 2. In general terms: Isothermal titration calorimetry measures the heat released or taken up as one component is titrated into another.

Data set [4] addresses T2, UP1+RGG. The data set is described as above. As to conditions: protein: recombinant, tags: C-terminal 6xHis (pET28a), chain copies: 2.
A further data set has as its target RGG-box (UniProt P09651-2 197-249). The experiment in a line: NMR 15N-1H HSQC titration; apparent Kd, global fit of 14 residues (individual 151-433 uM); ITC/CD: 20 mM Tris-Cl pH 8, 100 mM NaCl or KCl, 25 C; NMR: 10 mM sodium or potassium phosphate pH 6.5, 100 mM NaCl or KCl, 298 K. As to conditions: protein: recombinant; tags: N-terminal GST removed by TEV; intramolecular G4 (monomeric).

Chain of RGG-box (P09651 197-249): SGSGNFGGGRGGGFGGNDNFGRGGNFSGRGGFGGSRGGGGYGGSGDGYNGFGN

As to AGGATTAGGATTAGGATTAGGA (ssDNA) [Tel22ss], the Kd with UP1 [1] (single strand) was found to be 1.23 ± 0.14 µM; with UP1+RGG [2] (single strand) it was 1110 ± 150 nM; with UP1 [3] (single strand), 1200 ± 310 nM; with UP1+RGG [4] (single strand), 1040 ± 150 nM.
For the molecule AGGGTTAGGGTTAGGGTTAGGG (structured_DNA) [Tel22 G-quadruplex], the Kd with UP1 [1] (intramolecular G4 (monomeric)) turned out to be 5.62 ± 1.09 µM; with UP1+RGG [2] (intramolecular G4 (monomeric)) it was 4850 ± 600 nM; in the data set with UP1 [3] (intramolecular G4 (monomeric)), 710 ± 140 nM; in the data set with UP1+RGG [4] (intramolecular G4 (monomeric)), 600 ± 130 nM; in the data set with RGG-box it was 349 ± 35 µM.
